Test results reported in article PMC2133023.

Biological target: GAL4 DNA-binding domain fusion of the neuroglian^167 cytoplasmic domain with Y1234F (Drosophila)
Assay: two-hybrid

reduction of binding against wild type (β-galactosidase): 50%
Substance: GAL4 activation domain–Drosophila ankyrin fusion protein (from UniProt Q24241 1-1549) (natural protein)
